Measurements reported in publication PMC6838200 (2019).

Assays:
[1] = target: T1, Spa2-C (Spa2 C-terminal region, 1306-1466aa) (S. cerevisiae, UniProt P23201 1306-1466); assay: SPR; bivalent model, koff1
T1 chain: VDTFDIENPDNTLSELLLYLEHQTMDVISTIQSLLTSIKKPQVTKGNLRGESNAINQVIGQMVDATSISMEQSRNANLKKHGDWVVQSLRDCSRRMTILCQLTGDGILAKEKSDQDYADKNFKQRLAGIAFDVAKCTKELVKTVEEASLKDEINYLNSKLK

[2] = target: T1, Spa2-C (Spa2 C-terminal region, …); assay: SPR; bivalent model, koff2 (second site)

koff [1]: 0.046 s⁻¹
koff [2]: 0.00266 s⁻¹
B1: Aip5-N271 (domain or fragment)
chain: MVESLTVENQEHNVQPPSVTSAGDSYSTLATDLPLPSTNDIIESRDQLTESDLDEAINATENFAQELSSQRKSSKLKGHKKKNQGQIKANRDRDTIVKLSSSVGETEEASTRDAISHDLERKDDVIEIATDTINDATESPTQIPIDVNVVIKETSTNNVAEGTENVPPIKESTGIEVGNSPITRRKKNKKKKTTNRRGRNSSNPADTTDLSKQSTLDSILVGIEEYLQEDGSKNEDIKVNIVQDEPVNVEKMDIRTRNESSDKTFDIDVPN
